In publication PMC7570257:

Molecular target: PRMT1 catalytic core construct
Test: SEC

stoichiometry N: 4
Substance: PRMT1 catalytic core construct (domain or fragment)
